In PMC8605372:

Assays:
[1] = biological target: dansyl-Gab2(637-649) peptide (UniProt Q9UQC2); assay: Stopped-flow kinetics; K D from the rate constants of C1 and C2; conditions: 298 K in Results, 283 K in Methods (conflict in the article), no added salt (50 mM buffer only), 50 mM acetate at pH 5.0 and 5.5, 50 mM Bis-Tris at pH 6.0 and 6.5, 50 mM Hepes at pH 7.0 and 7.5, 50 mM Tris-HCl at pH 8
[2] = biological target: dansyl-Gab2(637-649) peptide (UniProt Q9UQC2); assay: Stopped-flow fluorescence (FRET), pseudo-first-order association kinetics, ionic-strength series; conditions: pH 8.0, 298 K in Results, 283 K in Methods (conflict in the article)
[3] = biological target: dansyl-Gab2(637-649) peptide (UniProt Q9UQC2); assay: Stopped-flow fluorescence (FRET Trp112 to dansyl), pseudo-first-order association kinetics; conditions: 298 K in Results, 283 K in Methods (conflict in the article), no added salt (50 mM buffer only), 50 mM acetate at pH 5.0 and 5.5, 50 mM Bis-Tris at pH 6.0 and 6.5, 50 mM Hepes at pH 7.0 and 7.5, 50 mM Tris-HCl at pH 8
[4] = biological target: dansyl-Gab2(637-649) peptide (UniProt Q9UQC2); assay: Stopped-flow fluorescence (FRET), displacement kinetics; conditions: 298 K in Results, 283 K in Methods (conflict in the article), no added salt (50 mM buffer only), 50 mM acetate at pH 5.0 and 5.5, 50 mM Bis-Tris at pH 6.0 and 6.5, 50 mM Hepes at pH 7.0 and 7.5, 50 mM Tris-HCl at pH 8
[5] = biological target: His169 (UniProt position 169, KSKVTHVMIRC); assay: kinetics (stopped-flow fluorescence/FRET binding and displacement); conditions: 283 K according to Methods (stopped-flow binding and displacement) and the Figure S2 legend. Results text states 298 K.; 50 mM buffer, no added salt stated for the pH series; 50 mM acetate (pH 5.0, 5.5), 50 mM Bis-Tris (pH 6.0, 6.5), 50 mM Hepes (pH 7.0, 7.5), 50 mM Tris-HCl (pH 8.0); 2 mM DTT in all; Folded domain, cysteines reduced. The binding reaction with the phosphopeptide was followed, so the pKa is derived from both kon and koff.

Substance | K D ([1]; pH 5.0) | K D ([1]; pH 5.5) | K D ([1]; pH 6.0) | K D ([1]; pH 6.5) | K D ([1]; pH 7.0) | K D ([1]; pH 7.5) | K D ([1]; pH 8.0) | k on ([3]; pH 5.0) | k on ([3]; pH 5.5) | k on ([3]; pH 6.0) | k on ([3]; pH 6.5) | k on ([3]; pH 7.0) | k on ([3]; pH 7.5) | k on ([3]; pH 8.0) | k off ([4]; pH 5.0) | k off ([4]; pH 5.5) | k off ([4]; pH 6.0) | k off ([4]; pH 6.5) | k off ([4]; pH 7.0) | k off ([4]; pH 7.5) | also measured
SHP2 (PTPN11) C-terminal SH2 domain, wild type | 3.8 µM | 2.8 µM | 4.7 µM | 6.9 µM | 6.8 µM | 17.2 µM | 21.3 µM | 2.11e+07 M⁻¹ s⁻¹ | 2.86e+07 M⁻¹ s⁻¹ | 2.41e+07 M⁻¹ s⁻¹ | 2e+07 M⁻¹ s⁻¹ | 2.2e+07 M⁻¹ s⁻¹ | 1.36e+07 M⁻¹ s⁻¹ | 9.9e+06 M⁻¹ s⁻¹ | 80 s⁻¹ | 79 s⁻¹ | 112 s⁻¹ | 141 s⁻¹ | 147 s⁻¹ | 234 s⁻¹ | k on ([2]; highest of the series: 50 mM Tris-HCl + 150 mM NaCl, Tris-HCl 50 mM pH 8.0): 6.4e+06 ± 500000 M⁻¹ s⁻¹; k on ([2]; lowest of the series: 10 mM Tris-HCl, no NaCl, Tris-HCl 10 mM pH 8.0): 3.14e+07 ± 3.8e+06 M⁻¹ s⁻¹; k off ([4]; pH 8.0): 210 s⁻¹
SHP2 C-SH2 domain H196A H196A | 5.3 µM | 2.9 µM | 5.4 µM | 3.4 µM | 3.4 µM | 13 µM | 13 µM | 2.4e+07 M⁻¹ s⁻¹ | 4e+07 M⁻¹ s⁻¹ | 2.1e+07 M⁻¹ s⁻¹ | 3.9e+07 M⁻¹ s⁻¹ | 3.7e+07 M⁻¹ s⁻¹ | 1.3e+07 M⁻¹ s⁻¹ | 1.2e+07 M⁻¹ s⁻¹ | 125 s⁻¹ | 114 s⁻¹ | 116 s⁻¹ | 132 s⁻¹ | 125 s⁻¹ | 172 s⁻¹ | k off ([4]; pH 8.0): 162 s⁻¹
SHP2 C-SH2 domain H143A H143A | 14.3 µM | 4 µM | 7.4 µM | 25 µM | 23 µM | 17 µM | 10.8 µM | 1.1e+07 M⁻¹ s⁻¹ | 3.2e+07 M⁻¹ s⁻¹ | 2e+07 M⁻¹ s⁻¹ | 9e+06 M⁻¹ s⁻¹ | 8e+06 M⁻¹ s⁻¹ | 1.3e+07 M⁻¹ s⁻¹ | 1.4e+07 M⁻¹ s⁻¹ | 154 s⁻¹ | 127 s⁻¹ | 149 s⁻¹ | 226 s⁻¹ | 183 s⁻¹ | 225 s⁻¹ | k off ([4]; pH 8.0): 148 s⁻¹
SHP2 C-SH2 domain H132A H132A | 3.6 µM | 2.4 µM | 2 µM | 10.4 µM | 8.5 µM | 12 µM | 27 µM | 2.2e+07 M⁻¹ s⁻¹ | 2.9e+07 M⁻¹ s⁻¹ | 4.5e+07 M⁻¹ s⁻¹ | 1.4e+07 M⁻¹ s⁻¹ | 2e+07 M⁻¹ s⁻¹ | 1.8e+07 M⁻¹ s⁻¹ | 1.1e+07 M⁻¹ s⁻¹ | 80 s⁻¹ | 69 s⁻¹ | 91 s⁻¹ | 143 s⁻¹ | 168 s⁻¹ | 219 s⁻¹ | k off ([4]; pH 8.0): 287 s⁻¹
SHP2 C-SH2 domain H114A H114A | 8.5 µM | 3.2 µM | 2.9 µM | 5.2 µM | 4.7 µM | 12 µM | 12 µM | 1.08e+07 M⁻¹ s⁻¹ | 3.2e+07 M⁻¹ s⁻¹ | 5.2e+07 M⁻¹ s⁻¹ | 2.4e+07 M⁻¹ s⁻¹ | 3.1e+07 M⁻¹ s⁻¹ | 2.1e+07 M⁻¹ s⁻¹ | 2.3e+07 M⁻¹ s⁻¹ | 92 s⁻¹ | 102 s⁻¹ | 148 s⁻¹ | 125 s⁻¹ | 144 s⁻¹ | 253 s⁻¹ | k off ([4]; pH 8.0): 263 s⁻¹
Tyrosine-protein phosphatase non-receptor type 11 (SHP2), C-terminal SH2 domain (C-SH2) (Homo sapiens (inferred; organism not stated in the article)) | – | – | – | – | – | – | – | – | – | – | – | – | – | – | – | – | – | – | – | – | pKa [5]: 7.1 ± 0.2
SHP2 C-SH2 domain H116A H116A | 6.6 µM | 3.4 µM | 5.6 µM | 6.4 µM | 11 µM | 20 µM | 14 µM | 1.6e+07 M⁻¹ s⁻¹ | 2.9e+07 M⁻¹ s⁻¹ | 1.9e+07 M⁻¹ s⁻¹ | 2e+07 M⁻¹ s⁻¹ | 1.5e+07 M⁻¹ s⁻¹ | 1.1e+07 M⁻¹ s⁻¹ | 1.4e+07 M⁻¹ s⁻¹ | 103 s⁻¹ | 98 s⁻¹ | 105 s⁻¹ | 130 s⁻¹ | 170 s⁻¹ | 204 s⁻¹ | k off ([4]; pH 8.0): 196 s⁻¹
